Patent US20150344583A1 (Amgen, published 2015)

B1: 32B5-MCC-DM1 (antibody, V domains shown)
VH: EVQLLESGGALVQPGGSLRLSCAASGFTFSSYAMNWVRQAPGKGLEWVSAISVGGDTYYADSVKGRFTISRDNSKNTLYLHVNSLSAEDSAVYYCAKDQVTLVRGVWYYYGLDVWGQGTTVTVSS
VL: VIVLIQSPLSLPVTPGEPASISCRSSQSLLHSNGNNYLDWYLQKPGQSPHLLISLGSNRTSGVPDRFSGSGSGTDFTLKISRVEAEDVGFYYCMQALQPPRRFGQGTKLEIKR
notes: MCC-DM1 conjugate of '32B5'
B2: Ab-1 (2A1CV5) (antibody, human IgG1, lambda, V domains shown)
VH: EVQLVESGGGLVKPGGSLRLSCAASGFTFGDYALSWFRQAPGKGLEWVGVSRSKAYGGTTDYAASVKGRFTISRDDSKSTAYLQMNSLKTEDTAVYYCASSGYSSGWTPFDYWGQGTLVTVSS
VL: not shown

Tests used:
[1] = target: T1, human BCMA (huBCMA) on cells (human, UniProt Q02223 1-184); assay: FACS on H929 cells (native BCMA, relative binding, indirect)
T1 construct: endogenous on H929, JD38 and other myeloma and B-cell lines and on patient plasma cells; also called native human BCMA
T1 chain: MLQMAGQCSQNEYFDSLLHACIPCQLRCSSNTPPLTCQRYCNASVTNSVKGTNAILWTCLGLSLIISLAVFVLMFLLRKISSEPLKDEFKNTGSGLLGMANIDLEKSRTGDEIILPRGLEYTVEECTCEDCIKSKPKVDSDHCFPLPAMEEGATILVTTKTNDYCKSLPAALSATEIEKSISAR

[2] = target: T1, human BCMA (huBCMA) on cells; assay: cell-based or functional assay
[3] = target: T2, clipped form of Sumo-huBCMA, SEQ ID NO:357 (human); assay: SEC and LC/MS
T2 chain: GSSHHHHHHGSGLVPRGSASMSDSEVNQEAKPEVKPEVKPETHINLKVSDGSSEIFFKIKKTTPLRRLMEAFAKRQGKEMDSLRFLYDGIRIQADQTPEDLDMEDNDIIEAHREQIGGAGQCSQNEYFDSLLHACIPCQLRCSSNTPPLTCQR

[4] = target: T3, cynomolgus (Macaca fascicularis) BCMA on cells (cynomolgus (Macaca fascicularis), UniProt Q02223 1-184 (human entry)); assay: summary sentence of Example 16; assay for cynomolgus BCMA not given there
T3 construct: also called cyno BCMA; cynomolgus BCMA
T3 sequence (Q02223 other isoform, or with tags, fused parts or gaps): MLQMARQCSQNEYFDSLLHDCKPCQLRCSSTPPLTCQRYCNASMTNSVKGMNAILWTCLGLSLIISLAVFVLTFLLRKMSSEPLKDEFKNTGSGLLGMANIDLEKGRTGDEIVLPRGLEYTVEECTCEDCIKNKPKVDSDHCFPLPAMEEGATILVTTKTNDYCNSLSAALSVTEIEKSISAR

[5] = target: T4, clipped form of Sumo-huBCMA, SEQ ID NO:356 (human); assay: SEC of antibody and Sumo-BCMA mixtures
T4 construct: the species in the SEC peak came from the Sumo fusion, so it may carry the tag
T4 chain: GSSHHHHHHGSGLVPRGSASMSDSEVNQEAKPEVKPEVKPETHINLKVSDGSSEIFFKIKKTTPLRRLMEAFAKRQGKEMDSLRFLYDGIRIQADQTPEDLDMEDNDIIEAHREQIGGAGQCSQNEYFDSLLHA

[6] = target: T5, clipped form of Sumo-huBCMA, SEQ ID NO:355 (human); assay: SEC of antibody and Sumo-BCMA mixtures
T5 chain: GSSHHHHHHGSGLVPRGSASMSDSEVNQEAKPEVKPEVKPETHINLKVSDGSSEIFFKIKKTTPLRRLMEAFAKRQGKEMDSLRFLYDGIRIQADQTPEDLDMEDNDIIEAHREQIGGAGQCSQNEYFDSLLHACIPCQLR

[7] = target: T6, clipped form of Sumo-huBCMA, SEQ ID NO:354 (human); assay: SEC of antibody and Sumo-BCMA mixtures
T6 construct: also called peak A
T6 chain: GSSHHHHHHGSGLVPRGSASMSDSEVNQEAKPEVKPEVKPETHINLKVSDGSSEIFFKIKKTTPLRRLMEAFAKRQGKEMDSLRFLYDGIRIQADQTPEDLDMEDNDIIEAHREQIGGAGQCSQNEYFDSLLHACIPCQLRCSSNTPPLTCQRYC

| Binder | EC50 [1] [nM] | IC50, H929 cell growth (CellTiter-Glo, 96 h) [2] [nM] | binding result [3] | binding result [4] | binding result [5] | binding result [6] | binding result [7] |
| --- | --- | --- | --- | --- | --- | --- | --- |
| B1 | 7 | 0.506 |  |  |  |  |  |
| B2 |  |  | binds | binds | binds | binds | binds |
